B1: POU domain, class 2, transcription factor 2, residues 200 to 269; numbered along this chain, P09086 (parent)
chain: LEELEQFARTFKQRRIKLGFTQGDVGLAMGKLYGNDFSQTTISRFEALNLSFKNMCKLKPLLEKWLNDAE

Variants of: B1
Test: abundance fitness (aPCA) (normalised: wild type 0, dead -1); higher = more abundant; growth selection in yeast, the domain comes from the species named
Conditions: Homo sapiens

Abundance fitness: each site, then its substitutions
D68: H -0.205; R -0.022; V -0.054; C -0.053; I -0.22; W -0.147; Q -0.063; F 0.085; E -0.047; K -0.015; P -0.349; Y -0.076
L61: P -0.027; I -0.141; F 0.05; T 0.008; M -0.031; Y -0.082; V -0.064; D -0.006; Q 0.013; S -0.038; H -0.064; C 0.026; A -0.043; R -0.038; K 0.032; G -0.093
W65: Y -0.128; C -0.243; A -0.469; P -0.433; E -0.923; V -0.198; R -0.628; M -0.309; K -0.716; G -0.71; S -0.522; Q -0.843; T -0.362
P60: V -0.035; D -0.082; I 0.098; S -0.069; C -0.177; T -0.06; K -0.295; L -0.156; Y -0.378; N -0.177; R -0.102; E -0.109; W -0.334; G -0.016; A -0.124; H -0.216; F -0.05; Q -0.103; M -0.207
K53: T 0.064; W -0.079; N -0.236; Q 0.028; D -0.048; Y -0.092; V -0.014; I -0.073; P -0.055; M -0.055; E 0.003; S 0.005; F -0.044; R -0.022; H 0.016; L -0.015; G 0.002; C -0.098; A 0.004
E70: N -0.066; Y -0.195; A -0.047; R -0.164; C -0.092; S 0.071; W -0.073; P -0.253; G -0.072; Q -0.07; D 0.054; M -0.072; V -0.035; H -0.341; T -0.086; F -0.2; K -0.128
C56: A -0.022; H -0.082; R 0.014; W -0.046; I -0.09; Y -0.196; D -0.052; L 0.007; K 0.015; N -0.064; S -0.029; T 0.053; F -0.034; V -0.029; G -0.055; E 0.002; Q 0.062
L62: T -0.501; D -0.999; A -0.166; M 0.025; R -0.968; G -0.744; Y -0.076; V -0.043; C -0.096; K -0.896; I 0.014; P -0.93; S -0.804; Q -0.843; E -0.974
N54: R -0.005; S 0.042; V 0.032; L -0.097; W -0.081; M 0.103; F 0.018; A -0.046; G -0.017; E 0.058; C -0.193; P -0.264; H 0.091; D 0.101; Y 0.09; K -0.017; Q 0.11; I -0.272; T 0.023
K64: C -0.117; S -0.084; N -0.232; A 0.081; L -0.049; I -0.158; Q 0.008; Y -0.24; H 0.041; M -0.096; E -0.016; R -0.054; D 0.003; V -0.048; W -0.257; P -0.343
L66: S -0.238; C 0.025; I 0.03; M -0.027

— the Human Domainome abundance scans (Beltran et al. 2025)
